Substitutions are numbered along the chain they refer to. Each block holds one binder with its values, some of them ahead of it.
Tests used:
[1] = target: T1, CD117 transiently expressed on Expi293 cells (UniProt P10721 26-976, limits assumed); test: FACS, MFI expressing / parental cells
T1 construct: whole, on cells; Two cassettes are described (P2A mVenus and direct mVenus fusion); also called CD117 transient cells; the transient cell line
Experimental: (§1) The transient expression of CD117 was validated with a control antibody, Expi293 (FIGS. 17A-17B). Expi293, […], was transiently transfected with CD117 48-hours post-transfection. The secondary antibody used was APC Goat anti-human IgG (diluted 1:400). 100,000 cells per well were blocked with 1×PBS+0.5% BSA for 1 hour, stained with 100 μL of the primary antibody for 1 hour, and stained with the secondary antibody for one hour, all with 3× washes in between each staining.

[2] = target: T2, Cluster of differentiation 117 (CD117), antigen of epitope binning and ELISA (UniProt P10721 26-520, limits assumed); test: Carterra SPR, human CD117
T2 construct: also called tyrosine-protein kinase KIT; mast/stem cell growth factor receptor (SCFR)
T2 sequence (P10721 26-520 limits assumed): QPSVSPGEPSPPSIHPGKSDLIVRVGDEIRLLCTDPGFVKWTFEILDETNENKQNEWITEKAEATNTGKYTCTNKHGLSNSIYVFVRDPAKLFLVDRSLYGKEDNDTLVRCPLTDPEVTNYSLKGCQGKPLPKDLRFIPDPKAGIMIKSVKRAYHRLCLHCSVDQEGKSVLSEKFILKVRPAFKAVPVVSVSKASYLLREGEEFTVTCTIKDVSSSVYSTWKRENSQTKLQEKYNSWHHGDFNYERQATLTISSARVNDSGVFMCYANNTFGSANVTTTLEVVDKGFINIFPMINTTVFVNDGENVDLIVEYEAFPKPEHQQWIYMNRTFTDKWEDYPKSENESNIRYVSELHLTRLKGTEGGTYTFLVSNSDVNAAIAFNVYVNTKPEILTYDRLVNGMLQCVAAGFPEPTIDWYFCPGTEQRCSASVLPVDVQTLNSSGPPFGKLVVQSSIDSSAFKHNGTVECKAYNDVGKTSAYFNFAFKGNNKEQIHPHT
Experimental: (§2) To further evaluate the antibodies discovered during the screens, 21 clones were selected for detailed characterization and were analyzed for target binding kinetics by a Carterra SPR instrument. The binding kinetics of the anti-CD117 antibodies for human CD117, cynomolgus monkey CD117, and murine CD117 are shown in FIG. 29A-29B.

cyno CD117 = target: T3, cyno CD117 (Macaca fascicularis, UniProt A0A7N9CP24); test: Carterra SPR, cyno CD117
T3 construct: antigen of the Carterra SPR kinetics; also called cynomolgus monkey CD117
T3 sequence (A0A7N9CP24 entry or part of it): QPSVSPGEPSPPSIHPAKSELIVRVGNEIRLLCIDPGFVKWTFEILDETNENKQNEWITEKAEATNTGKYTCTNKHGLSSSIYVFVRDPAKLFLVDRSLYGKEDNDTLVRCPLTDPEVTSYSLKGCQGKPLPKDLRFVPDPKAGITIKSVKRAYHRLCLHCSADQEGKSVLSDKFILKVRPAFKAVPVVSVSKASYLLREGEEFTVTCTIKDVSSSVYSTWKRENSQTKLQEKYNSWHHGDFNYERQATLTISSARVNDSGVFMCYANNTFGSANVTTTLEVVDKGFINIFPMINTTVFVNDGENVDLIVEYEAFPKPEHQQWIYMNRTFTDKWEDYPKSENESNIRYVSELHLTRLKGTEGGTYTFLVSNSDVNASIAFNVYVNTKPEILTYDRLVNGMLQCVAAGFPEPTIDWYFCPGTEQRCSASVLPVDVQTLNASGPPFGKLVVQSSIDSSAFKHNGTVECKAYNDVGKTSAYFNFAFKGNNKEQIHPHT
Experimental: as §2

[3] = target: T1, CD117 transiently expressed on Expi293 …; test: FACS cell binding, Expi293 transiently expressing CD117
Experimental: as §1

mouse CD117 = target: T4, mouse CD117 (mouse, UniProt P05532); test: Carterra SPR, mouse CD117
T4 construct: antigen of the Carterra SPR kinetics; also called murine CD117
T4 sequence (receptor, looked up): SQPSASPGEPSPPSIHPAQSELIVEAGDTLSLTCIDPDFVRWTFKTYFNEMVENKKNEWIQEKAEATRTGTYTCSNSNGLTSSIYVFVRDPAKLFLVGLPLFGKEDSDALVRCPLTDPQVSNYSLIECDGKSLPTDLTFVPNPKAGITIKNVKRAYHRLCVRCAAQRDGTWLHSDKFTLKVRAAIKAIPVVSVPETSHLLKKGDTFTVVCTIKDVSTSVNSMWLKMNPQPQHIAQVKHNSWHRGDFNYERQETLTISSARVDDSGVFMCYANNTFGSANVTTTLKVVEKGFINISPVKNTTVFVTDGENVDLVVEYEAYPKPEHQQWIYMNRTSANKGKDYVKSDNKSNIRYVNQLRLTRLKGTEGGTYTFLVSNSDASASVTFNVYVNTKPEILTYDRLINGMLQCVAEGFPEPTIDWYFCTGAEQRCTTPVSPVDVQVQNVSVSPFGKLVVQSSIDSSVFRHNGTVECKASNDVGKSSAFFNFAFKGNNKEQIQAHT
Experimental: as §2

SIGLEC-3 = target: T5, SIGLEC-3; test: SPR cross-reactivity table
T5 construct: also called CD33
T5 sequence (receptor, as listed by the source limits assumed): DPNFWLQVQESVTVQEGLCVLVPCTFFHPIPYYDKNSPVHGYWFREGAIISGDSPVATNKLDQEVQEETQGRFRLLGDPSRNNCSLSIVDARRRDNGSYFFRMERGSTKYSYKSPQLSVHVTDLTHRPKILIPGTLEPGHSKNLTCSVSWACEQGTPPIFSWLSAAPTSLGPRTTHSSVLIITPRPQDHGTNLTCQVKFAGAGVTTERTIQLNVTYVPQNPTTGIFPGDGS
In short: (§3)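 Clones from synthetic libraries, panned for four rounds using beads and screened by clonal ELISA, were expressed and purified. These anti-SIGLEC-8 antibodies were then checked by surface plasmon resonance on a Carterra instrument for cross-reactivity with related SIGLEC proteins. For each protein tested, a dissociation constant or binding result is given.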

SIGLEC-5 = target: T6, SIGLEC-5 (limits assumed); test: SPR cross-reactivity table
T6 construct: also called OB-BP-2
T6 receptor: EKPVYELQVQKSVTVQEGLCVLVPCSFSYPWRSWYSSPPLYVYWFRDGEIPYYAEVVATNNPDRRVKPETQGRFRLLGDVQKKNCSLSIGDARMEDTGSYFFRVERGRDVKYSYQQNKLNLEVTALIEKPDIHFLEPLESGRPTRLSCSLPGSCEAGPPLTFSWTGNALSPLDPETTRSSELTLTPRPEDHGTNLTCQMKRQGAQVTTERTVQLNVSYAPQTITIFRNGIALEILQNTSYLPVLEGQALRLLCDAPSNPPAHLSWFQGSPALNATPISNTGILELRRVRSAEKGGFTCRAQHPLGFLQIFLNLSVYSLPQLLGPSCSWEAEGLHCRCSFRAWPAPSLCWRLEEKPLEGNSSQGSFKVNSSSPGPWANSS
In short: as §3

SIGLEC-2 = target: T7, SIGLEC-2; test: SPR cross-reactivity table
T7 construct: also called CD22
T7 sequence (chain, as listed by the source limits assumed): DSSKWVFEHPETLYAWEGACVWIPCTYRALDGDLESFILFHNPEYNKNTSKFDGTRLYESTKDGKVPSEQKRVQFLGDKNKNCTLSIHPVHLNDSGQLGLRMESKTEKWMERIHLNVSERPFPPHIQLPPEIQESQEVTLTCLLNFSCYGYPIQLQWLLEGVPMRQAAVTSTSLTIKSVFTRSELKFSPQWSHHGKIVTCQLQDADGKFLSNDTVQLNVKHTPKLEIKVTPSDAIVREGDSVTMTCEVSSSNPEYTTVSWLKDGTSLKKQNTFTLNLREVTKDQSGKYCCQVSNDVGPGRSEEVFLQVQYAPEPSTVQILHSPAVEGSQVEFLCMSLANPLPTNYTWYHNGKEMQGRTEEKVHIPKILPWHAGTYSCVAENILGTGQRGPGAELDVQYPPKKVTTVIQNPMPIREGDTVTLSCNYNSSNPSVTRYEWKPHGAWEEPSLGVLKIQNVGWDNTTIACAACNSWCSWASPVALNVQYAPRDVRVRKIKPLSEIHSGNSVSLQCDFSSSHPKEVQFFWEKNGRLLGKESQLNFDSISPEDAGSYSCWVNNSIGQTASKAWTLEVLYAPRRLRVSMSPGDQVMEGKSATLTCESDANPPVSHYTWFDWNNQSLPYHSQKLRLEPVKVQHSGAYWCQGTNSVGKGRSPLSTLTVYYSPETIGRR
In short: as §3

SIGLEC-7 = target: T8, SIGLEC-7; test: SPR cross-reactivity table
T8 construct: also called p75/AIRM1
T8 sequence (receptor, as listed by the source limits assumed): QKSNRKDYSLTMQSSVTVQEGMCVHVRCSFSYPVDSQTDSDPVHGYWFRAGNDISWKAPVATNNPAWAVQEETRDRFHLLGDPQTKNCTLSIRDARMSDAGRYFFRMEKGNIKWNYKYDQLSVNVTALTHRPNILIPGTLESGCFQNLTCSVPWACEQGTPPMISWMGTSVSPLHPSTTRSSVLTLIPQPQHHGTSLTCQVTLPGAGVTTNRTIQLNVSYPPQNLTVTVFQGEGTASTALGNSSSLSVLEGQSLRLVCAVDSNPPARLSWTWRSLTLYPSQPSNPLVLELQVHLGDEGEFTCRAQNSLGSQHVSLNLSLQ
In short: as §3

[4] = target: Sialic acid-binding immunoglobulin-like lectin 8 (SIGLEC-8), antigen of the Carterra SPR studies (UniProt Q9NYZ4 17-363, limits assumed); test: Carterra SPR
Chain of Sialic acid-binding immunoglobulin-like lectin 8 (SIGLEC-8), antigen of the Carterra SPR studies (Q9NYZ4 17-363 limits assumed): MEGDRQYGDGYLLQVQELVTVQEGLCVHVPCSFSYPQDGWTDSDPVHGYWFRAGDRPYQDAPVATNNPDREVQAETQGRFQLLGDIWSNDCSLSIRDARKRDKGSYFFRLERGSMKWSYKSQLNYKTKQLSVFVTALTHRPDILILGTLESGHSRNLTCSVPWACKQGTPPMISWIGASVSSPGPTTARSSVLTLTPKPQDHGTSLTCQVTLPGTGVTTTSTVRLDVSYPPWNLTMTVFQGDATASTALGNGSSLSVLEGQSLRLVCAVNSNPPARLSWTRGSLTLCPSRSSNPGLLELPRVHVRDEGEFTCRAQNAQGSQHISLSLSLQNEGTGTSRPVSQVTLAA
In short: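 Values are rate constants or dissociation constants for antibodies binding SIGLEC-8, measured by surface plasmon resonance on a Carterra instrument. The antibodies were drawn from synthetic libraries through four rounds of bead-based panning. Clones picked by clonal ELISA were expressed and purified prior to measurement.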

[5] = target: T9, SIGLEC-8 transiently expressed on cells (UniProt Q9NYZ4 17-499, limits assumed); test: cell binding titration, transient SIGLEC-8 line
T9 construct: whole, on cells; Two cassettes are described (P2A mVenus and direct mVenus fusion); also called the transient line; pTT5-SIGLEC-8 P2A mVenus
T9 sequence (Q9NYZ4 17-499 limits assumed): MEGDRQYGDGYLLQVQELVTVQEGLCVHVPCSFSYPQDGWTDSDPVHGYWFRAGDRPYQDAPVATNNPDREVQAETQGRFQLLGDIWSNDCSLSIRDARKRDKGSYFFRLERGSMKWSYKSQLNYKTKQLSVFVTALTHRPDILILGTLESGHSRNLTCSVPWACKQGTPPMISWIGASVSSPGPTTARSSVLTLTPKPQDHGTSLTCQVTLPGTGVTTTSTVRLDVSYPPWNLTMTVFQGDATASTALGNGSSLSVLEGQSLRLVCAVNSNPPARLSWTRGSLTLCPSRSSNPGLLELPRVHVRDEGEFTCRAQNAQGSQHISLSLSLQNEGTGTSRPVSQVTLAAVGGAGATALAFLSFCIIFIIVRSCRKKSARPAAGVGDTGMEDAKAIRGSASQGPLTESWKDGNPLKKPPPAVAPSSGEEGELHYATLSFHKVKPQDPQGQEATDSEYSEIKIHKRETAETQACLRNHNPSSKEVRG

T1 sequence (P10721 26-976 limits assumed): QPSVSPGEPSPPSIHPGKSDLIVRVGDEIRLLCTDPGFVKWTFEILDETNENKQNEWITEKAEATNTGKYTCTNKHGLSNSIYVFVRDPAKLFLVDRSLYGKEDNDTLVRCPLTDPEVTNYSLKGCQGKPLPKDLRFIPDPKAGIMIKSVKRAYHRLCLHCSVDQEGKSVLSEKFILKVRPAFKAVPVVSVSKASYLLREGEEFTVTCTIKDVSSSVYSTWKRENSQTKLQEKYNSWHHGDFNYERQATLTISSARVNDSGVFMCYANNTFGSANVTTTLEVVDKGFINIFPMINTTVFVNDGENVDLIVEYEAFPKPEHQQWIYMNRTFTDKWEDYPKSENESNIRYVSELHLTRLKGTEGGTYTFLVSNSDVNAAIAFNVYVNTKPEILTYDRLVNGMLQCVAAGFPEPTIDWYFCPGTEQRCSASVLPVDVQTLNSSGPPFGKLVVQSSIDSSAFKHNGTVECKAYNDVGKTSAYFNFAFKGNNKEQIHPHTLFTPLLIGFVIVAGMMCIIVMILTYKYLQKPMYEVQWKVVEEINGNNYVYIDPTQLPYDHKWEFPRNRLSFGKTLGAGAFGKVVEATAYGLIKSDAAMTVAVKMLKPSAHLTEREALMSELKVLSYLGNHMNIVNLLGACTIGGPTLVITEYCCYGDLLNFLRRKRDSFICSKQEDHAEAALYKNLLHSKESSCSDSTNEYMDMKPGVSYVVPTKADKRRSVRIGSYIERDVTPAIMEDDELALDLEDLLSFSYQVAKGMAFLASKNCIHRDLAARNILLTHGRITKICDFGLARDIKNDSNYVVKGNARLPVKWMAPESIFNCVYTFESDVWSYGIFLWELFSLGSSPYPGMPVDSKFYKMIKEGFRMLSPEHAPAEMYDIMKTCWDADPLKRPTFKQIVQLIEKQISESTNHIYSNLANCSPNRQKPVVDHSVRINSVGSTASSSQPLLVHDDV

B1: CD117-13 (antibody, human IgG1, kappa, V domains shown)
VH: EVQLLESGGGLVQPGGSLRLSCAASGFTLTSYAMSWVRQAPGKGLEWVSTISGSGGYTYYADSVKGRFTISRDNSKNTLYLQMNSLRAEDTAVYYCARDSGYDRGLDYWGQGTLVTVSS
VL: DIQMTQSPSSLSASVGDRVTITCRASQNIYTYLNWYQQKPGKAPKLLIYDASSLHSGVPSRFSGSGSGTDFTLTISSLQPEDFATYYCQQSSSTPYTFGGGTKVEIKR
notes: detected with anti-human IgG in FACS
MFI Ratio [1]: 18.6 | Kd [2]: 5.17 nM | koff [2]: 0.00877 s⁻¹ | kon [2]: 1.7e+06 M⁻¹ s⁻¹ | Kd (cyno CD117): 480 nM | koff (cyno CD117): 0.156 s⁻¹ | kon (cyno CD117): 324000 M⁻¹ s⁻¹ | EC50 [3]: 11 nM | binding result (mouse CD117): no binding

B2: CD117-10 (antibody, human IgG1, kappa, V domains shown)
VH: EVQLLESGGGLVQPGGSLRLSCAASGFIFSSYAMTWVRQAPGKGLEWVSSISGRGGNTYYADSVKGRFTISRDNSKNTLYLQMNSLRAEDTAVYYCAKMMDDFYDAFNMWGQGTLVTVSS
VL: B1 VL with N28S, Y30R, H55E, S92F, S93T
notes: as for B1
MFI Ratio [1]: 21.2 | binding result [2]: no binding | Kd (cyno CD117): 26600 nM | koff (cyno CD117): 0.916 s⁻¹ | kon (cyno CD117): 34400 M⁻¹ s⁻¹ | EC50 [3]: 91.3 nM | binding result (mouse CD117): no binding

B6: SIGLEC-8-8 (antibody, human IgG1, kappa, V domains shown)
VH: EVQLLESGGGLVQPGGSLRLSCAASGFTFNYYALSWVRQAPGKGLEWVSGISGSGGTTFYADSVKGRFTISRDNSKNTLYLQMNSLRAEDTAVYYCARRGGWYSFDIWGQGTLVTVSS
VL: B1 VL with S10T, S14Y, N28I, Y30S, D50S, H55Q, S92F, T94A, Y96D
notes: tested as expressed and purified mAb
binding result (SIGLEC-3): no binding | Kd (SIGLEC-5): 39.3 nM | Kd (SIGLEC-2): 4300 nM | binding result (SIGLEC-7): no binding | Kd [4]: 1.65 nM | EC50 [5]: 1.3 nM

B7: CD117-5 (antibody, human IgG1, kappa, V domains shown)
VH: EVQLLESGGGLVQPGGSLRLSCAASGFIFTNYAMSWVRQAPGKGLEWVSAIGGSGSSTYYADSVKGRFTVSRDNSKNTLYLQMNSLRAEDTAVYYCVKGGYSYGDSFDFWGQGTLVTVSS
VL: B1 VL with N28S, I29V, Y30R, T31N, S53D, H55Q, S91G, S92Y, Y96W
notes: as for B1
MFI Ratio [1]: 21.3 | Kd [2]: 670 nM | koff [2]: 0.201 s⁻¹ | kon [2]: 300000 M⁻¹ s⁻¹ | Kd (cyno CD117): 2390 nM | koff (cyno CD117): 0.211 s⁻¹ | kon (cyno CD117): 88300 M⁻¹ s⁻¹ | EC50 [3]: 6.88 nM | binding result (mouse CD117): no binding

B8: CD117-12 (antibody, human IgG1, kappa, V domains shown)
VH: EVQLLESGGGLVQPGGSLRLSCAASGITFSSYAMTWVRQAPGKGLEWVSAISSSGTGTYYADSVKGRFTISRDNSKNTLYLQMNSLRAEDTAVYYCARERAPKDFGSSGYSFDYWGQGTLVTVSS
VL: B1 VL with N28S, Y30D, T31I, D50K, H55Q, S92Y, S93T, T94V, Y96I
notes: as for B1
MFI Ratio [1]: 10.6 | Kd [2]: 187 nM | koff [2]: 0.101 s⁻¹ | kon [2]: 541000 M⁻¹ s⁻¹ | Kd (cyno CD117): 5190 nM | koff (cyno CD117): 0.201 s⁻¹ | kon (cyno CD117): 38700 M⁻¹ s⁻¹ | EC50 [3]: 1210 nM | binding result (mouse CD117): no binding

B9: CD117-20 (antibody, human IgG1, kappa, V domains shown)
VH: EVQLLESGGGLVQPGGSLRLSCAASGFTFSSDAMNWVRQAPGKGLEWVSGISGSGGYTYYADSVKGRFTISRDNSKNTLYLQMNSLRAEDTAVYYCARSGNVVGDGMDVWGQGTLVTVSS
VL: B1 VL with Y30R, T31R, S53T, H55E, S92H, S93T, Y96L
notes: as for B1
MFI Ratio [1]: 14.4 | binding result [2]: no binding | Kd (cyno CD117): 4120 nM | koff (cyno CD117): 0.298 s⁻¹ | kon (cyno CD117): 72200 M⁻¹ s⁻¹ | EC50 [3]: 6.24 nM | binding result (mouse CD117): no binding

More lines, now with the values ahead:

MFI Ratio [1]: 16.2 | Kd [2]: 2.53 nM | koff [2]: 0.00336 s⁻¹ | kon [2]: 1.33e+06 M⁻¹ s⁻¹ | Kd (cyno CD117): 5.02 nM | koff (cyno CD117): 0.00679 s⁻¹ | kon (cyno CD117): 1.35e+06 M⁻¹ s⁻¹ | EC50 [3]: 20 nM | binding result (mouse CD117): no binding
B3: CD117-18 (antibody, human IgG1, kappa, V domains shown)
VH: EVQLLESGGGLVQPGGSLRLSCAASGFTFSDYSMNWVRQAPGKGLEWVSAITGSGGNTFYADSVKGRFTISRDNSKNTLYLQMNSLRAEDTAVYYCARSNYEQDVFDIWGQGTLVTVSS
VL: B1 VL with N28T, T31R, S53D, H55Q, S92Y, T94I, Y96I
notes: as for B1

MFI Ratio [1]: 17.2 | Kd [2]: 270 nM | koff [2]: 0.0679 s⁻¹ | kon [2]: 252000 M⁻¹ s⁻¹ | Kd (cyno CD117): 338 nM | koff (cyno CD117): 0.0681 s⁻¹ | kon (cyno CD117): 201000 M⁻¹ s⁻¹ | EC50 [3]: 4.31 nM | binding result (mouse CD117): no binding
B4: CD117-11 (antibody, human IgG1, kappa, V domains shown)
VH: EVQLLESGGGLVQPGGSLRLSCAASGFTFGNFAMSWVRQAPGKGLEWVSLISGSGGNTYYADSVKGRFTISRDNSKNTLYLQMNSLRAEDTAVYYCARGDGVNGFDYWGQGTLVTVSS
VL: B1 VL with N28S, Y30P, D50A, A51T, S53T, H55E, S91T, S92Y
notes: as for B1

MFI Ratio [1]: 29.1 | Kd [2]: 9.51 nM | koff [2]: 0.0058 s⁻¹ | kon [2]: 610000 M⁻¹ s⁻¹ | Kd (cyno CD117): 15.7 nM | koff (cyno CD117): 0.0108 s⁻¹ | kon (cyno CD117): 685000 M⁻¹ s⁻¹ | EC50 [3]: 1.39 nM | binding result (mouse CD117): no binding
B5: CD117-9 (antibody, human IgG1, kappa, V domains shown)
VH: EVQLLESGGGLVQPGGSLRLSCAASGFSFTNYAMSWVRQAPGKGLEWVSSISGSGGSTYYADSVKGRFTISRDNSKNTLYLQMNSLRAEDTAVYYCARGSGSYFGFDFWGQGTLVTVSS
VL: B1 VL with N28G, Y30G, D50A, H55Q, S56P, S92Y, S93R, T94P, Y96F
notes: as for B1

MFI Ratio [1]: 20.1 | Kd [2]: 3 nM | koff [2]: 0.00406 s⁻¹ | kon [2]: 1.35e+06 M⁻¹ s⁻¹ | Kd (cyno CD117): 92.6 nM | koff (cyno CD117): 0.0673 s⁻¹ | kon (cyno CD117): 727000 M⁻¹ s⁻¹ | EC50 [3]: 7.58 nM | binding result (mouse CD117): no binding
B10: CD117-17 (antibody, human IgG1, kappa, V domains shown)
VH: EVQLLESGGGLVQPGGSLRLSCAASGFTFSDYPMSWVRQAPGKGLEWVSAIGGSGGDTYYADSVKGRFTISRDNSKNTLYLQMNSLRAEDTAVYYCARGAYDGEGFDYWGQGTLVTVSS
VL: B1 VL with N28T, Y30S, T31G, S53T, H55Q, S56R, S91N, S92Y, S93R, Y96F
notes: as for B1

MFI Ratio [1]: 12.9 | Kd [2]: 5.87 nM | koff [2]: 0.00388 s⁻¹ | kon [2]: 662000 M⁻¹ s⁻¹ | Kd (cyno CD117): 20.8 nM | koff (cyno CD117): 0.0272 s⁻¹ | kon (cyno CD117): 1.31e+06 M⁻¹ s⁻¹ | EC50 [3]: 3.29 nM | binding result (mouse CD117): no binding
B11: CD117-19 (antibody, human IgG1, kappa, V domains shown)
VH: EVQLLESGGGLVQPGGSLRLSCAASGFSFSSYAMSWVRQAPGKGLEWVSAISGTGGNTYYADSVKGRFTISRDNSKNTLYLQMNSLRAEDTAVYYCARRNDFWSDAFDIWGQGTLVTVSS
VL: B1 VL with S92Y, T94S, P95S, Y96I
notes: as for B1

Source: patent US20260001953A1 (TWIST BIOSCIENCE, published 2026)
